Molecular target: Hepatocyte growth factor/scatter factor (HGF) (UniProt P14210+P14210)
Assay: FP
Details: 2'-F pyrimidines

Hepatocyte growth factor/scatter factor (HGF), sequence (P14210 32-494, chain 1 of 2): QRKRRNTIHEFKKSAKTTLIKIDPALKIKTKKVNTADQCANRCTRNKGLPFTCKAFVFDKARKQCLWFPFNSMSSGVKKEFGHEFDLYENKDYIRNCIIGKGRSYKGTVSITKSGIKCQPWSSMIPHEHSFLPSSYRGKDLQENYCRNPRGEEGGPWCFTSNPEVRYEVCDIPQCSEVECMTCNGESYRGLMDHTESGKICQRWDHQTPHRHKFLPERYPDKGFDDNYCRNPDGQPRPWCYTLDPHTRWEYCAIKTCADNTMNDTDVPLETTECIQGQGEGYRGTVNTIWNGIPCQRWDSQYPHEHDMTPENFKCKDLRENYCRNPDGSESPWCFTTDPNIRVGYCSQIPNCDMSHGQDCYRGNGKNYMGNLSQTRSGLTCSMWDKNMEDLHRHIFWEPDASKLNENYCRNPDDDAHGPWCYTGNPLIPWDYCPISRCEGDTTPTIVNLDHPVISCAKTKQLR
Hepatocyte growth factor/scatter factor (HGF), sequence (P14210 495-728, chain 2 of 2): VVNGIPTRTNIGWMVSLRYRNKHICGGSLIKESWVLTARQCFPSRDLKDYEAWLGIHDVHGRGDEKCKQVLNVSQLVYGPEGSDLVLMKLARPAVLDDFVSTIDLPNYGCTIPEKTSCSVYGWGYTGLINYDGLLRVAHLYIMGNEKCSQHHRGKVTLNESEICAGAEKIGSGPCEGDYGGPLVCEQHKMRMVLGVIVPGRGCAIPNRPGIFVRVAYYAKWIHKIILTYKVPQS

For “GAGAGNUCCUAUUUAUGACAUCCCAUGCCCCCA [Tr65]”, the Kd was 1.4 nM.

Reference: US20030049644
